Numbered stars: 1 amine (or outer) side, 2 acyl side, 3 side chain; on linkers, the order of the positions; unused ones are H or OH. Bridge positions count the residues as written; N and C are the ends. Square brackets hold non-standard residues; d marks the D form. Ends that are not written are not given here. cPrCO(1-aminomethyl) = O=C(C1(CN[*:1])CC1)[*:2]; Phe(3-COOH) = N[C@@H](Cc1cccc(C(=O)O)c1)C(=O)O; Oic = O=C(O)[C@@H]1C[C@@H]2CCCC[C@@H]2N1; PEG8 = NCCOCCOCCOCCOCCOCCOCCOCCOCCC(=O)O; PEG7 = NCCOCCOCCOCCOCCOCCOCCOCCC(=O)O; NMeI = CC[C@H](C)[C@H](NC)C(=O)O; tBuAla = CC(C)(C)C[C@H](N)C(=O)O; Cit = NC(=O)NCCC[C@H](N)C(=O)O; Pen = CC(C)(S)[C@H](N)C(=O)O; NMeC = CN[C@@H](CS)C(=O)O; Pip = O=C(O)[C@@H]1CCCCN1; NMeA = CN[C@@H](C)C(=O)O; Orn = NCCC[C@H](N)C(=O)O; Sar = CNCC(=O)O
T1: recombinant human MASP1 active protease (amino acids 297-699, C-terminal His Tag) (human, UniProt P48740 297-699)
T1 sequence: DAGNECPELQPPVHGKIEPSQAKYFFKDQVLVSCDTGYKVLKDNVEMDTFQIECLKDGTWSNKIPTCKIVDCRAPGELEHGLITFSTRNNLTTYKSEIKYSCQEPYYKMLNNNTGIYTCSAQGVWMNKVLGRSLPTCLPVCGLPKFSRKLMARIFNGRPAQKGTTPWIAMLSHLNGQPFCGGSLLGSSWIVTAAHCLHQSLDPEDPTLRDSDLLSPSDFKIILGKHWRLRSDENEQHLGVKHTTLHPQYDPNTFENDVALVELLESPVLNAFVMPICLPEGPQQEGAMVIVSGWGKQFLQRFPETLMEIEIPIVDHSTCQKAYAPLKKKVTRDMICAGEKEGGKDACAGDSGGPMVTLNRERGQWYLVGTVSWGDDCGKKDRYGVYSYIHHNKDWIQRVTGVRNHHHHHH

T2: Recombinant human MASP1 enzyme (fragment corresponding to amino acids 297-699, C-terminal His Tag) (human, UniProt P48740 297-699)
T2 sequence: T1 sequence

B1: (3-Amino-3-methylbutyric acid)-IC+SRS-((tBu)A)-PPI-(Pen)+IPD-NH2 (peptide)
peptide: [3‑Amino‑3‑methylbutyric acid]ICSRS[tBuAla]PPI[Pen]IPD-NH2
modifications: disulfide 3-11
B2: AIC+SRSLP-(Oic)-I-(Pen)+IPD-NH2 (salt free form) (peptide)
peptide: AICSRSLP[Oic]I[Pen]IPD-NH2
modifications: disulfide 3-11
B3: AIC+SRSLP-(Oic)-I-(Pen)+IPD-OH (HCl salt) (peptide)
peptide: AICSRSLP[Oic]I[Pen]IPD-OH
modifications: disulfide 3-11; also: HCl salt
B4: (Pip)-IC+SRS-((tBu)A)-PPI-((N-Me)C)+IPD-NH2 (peptide)
peptide: [Pip]ICSRS[tBuAla]PPI[NMeC]IPD-NH2
modifications: disulfide 3-11; N-terminus assumed
SMILES: CC[C@H](C)[C@H](NC(=O)[C@@H]1CCCCN1)C(=O)N[C@H]1CSSC[C@@H](C(=O)N[C@H](C(=O)N2CCC[C@H]2C(=O)N[C@@H](CC(=O)O)C(N)=O)[C@@H](C)CC)N(C)C(=O)[C@H]([C@@H](C)CC)NC(=O)[C@@H]2CCCN2C(=O)[C@@H]2CCCN2C(=O)[C@H](CC(C)(C)C)NC(=O)[C@H](CO)NC(=O)[C@H](CCCNC(=N)N)NC(=O)[C@H](CO)NC1=O
B5: (Cit)-IC+SRS-((tBu)A)-PPI-(Pen)+IPD-NH2 (peptide)
peptide: [Cit]ICSRS[tBuAla]PPI[Pen]IPD-NH2
modifications: disulfide 3-11; N-terminus assumed
SMILES: CC[C@H](C)[C@H](NC(=O)[C@@H](N)CCCNC(N)=O)C(=O)N[C@H]1CSSC(C)(C)[C@@H](C(=O)N[C@H](C(=O)N2CCC[C@H]2C(=O)N[C@@H](CC(=O)O)C(N)=O)[C@@H](C)CC)NC(=O)[C@H]([C@@H](C)CC)NC(=O)[C@@H]2CCCN2C(=O)[C@@H]2CCCN2C(=O)[C@H](CC(C)(C)C)NC(=O)[C@H](CO)NC(=O)[C@H](CCCNC(=N)N)NC(=O)[C@H](CO)NC1=O
B6: AIC+SRSLP-(Oic)-I-(Pen)+IPD-NH2 (HCl salt) (peptide)
peptide: AICSRSLP[Oic]I[Pen]IPD-NH2
modifications: disulfide 3-11; also: HCl salt
B7: (Orn)-IC+SRS-((tBu)A)-PPI-(Pen)+IPD-OH (peptide)
peptide: [Orn]ICSRS[tBuAla]PPI[Pen]IPD-OH
modifications: disulfide 3-11; N-terminus assumed
SMILES: CC[C@H](C)[C@H](NC(=O)[C@@H](N)CCCN)C(=O)N[C@H]1CSSC(C)(C)[C@@H](C(=O)N[C@H](C(=O)N2CCC[C@H]2C(=O)N[C@@H](CC(=O)O)C(=O)O)[C@@H](C)CC)NC(=O)[C@H]([C@@H](C)CC)NC(=O)[C@@H]2CCCN2C(=O)[C@@H]2CCCN2C(=O)[C@H](CC(C)(C)C)NC(=O)[C@H](CO)NC(=O)[C@H](CCCNC(=N)N)NC(=O)[C@H](CO)NC1=O
B8: (ACMP)-IC+SRS-((tBu)A)-PPI-(Pen)+IPD-NH2 (peptide)
peptide: [cPrCO(1-aminomethyl)]ICSRS[tBuAla]PPI[Pen]IPD-NH2
modifications: disulfide 3-11; N-terminus assumed
SMILES: CC[C@H](C)[C@@H]1NC(=O)[C@@H]2CCCN2C(=O)[C@@H]2CCCN2C(=O)[C@H](CC(C)(C)C)NC(=O)[C@H](CO)NC(=O)[C@H](CCCNC(=N)N)NC(=O)[C@H](CO)NC(=O)[C@@H](NC(=O)[C@@H](NC(=O)C2(CN)CC2)[C@@H](C)CC)CSSC(C)(C)[C@@H](C(=O)N[C@H](C(=O)N2CCC[C@H]2C(=O)N[C@@H](CC(=O)O)C(N)=O)[C@@H](C)CC)NC1=O
B9: ((N-Me)G)-IC+SRS-((tBu)A)-PPI-(Pen)+IP-(PEG7(25 atoms))-NH2 (peptide)
peptide: [Sar]ICSRS[tBuAla]PPI[Pen]IP[PEG7]-NH2
modifications: disulfide 3-11; N-terminus assumed
SMILES: CC[C@H](C)[C@H](NC(=O)CNC)C(=O)N[C@H]1CSSC(C)(C)[C@@H](C(=O)N[C@H](C(=O)N2CCC[C@H]2C(=O)NCCOCCOCCOCCOCCOCCOCCOCCC(N)=O)[C@@H](C)CC)NC(=O)[C@H]([C@@H](C)CC)NC(=O)[C@@H]2CCCN2C(=O)[C@@H]2CCCN2C(=O)[C@H](CC(C)(C)C)NC(=O)[C@H](CO)NC(=O)[C@H](CCCNC(=N)N)NC(=O)[C@H](CO)NC1=O
B10: ((1R,3S,4S)-2-azabicyclo[2.2.1]heptane-3-carboxylic acid)-IC+SRS-((tBu)A)-PPI-(Pen)+IP-NH2 (peptide)
peptide: [(1R,3S,4S)‑2‑azabicyclo(2.2.1)heptane‑3‑carboxylic acid]ICSRS[tBuAla]PPI[Pen]IP-NH2
modifications: disulfide 3-11
B11: aIC+SRSLP-(Oic)-I-(Pen)+IPD-NH2 (peptide)
peptide: [dA]ICSRSLP[Oic]I[Pen]IPD-NH2
modifications: disulfide 3-11
B12: ((N-Me)A)-IC+SRS-((tBu)A)-PPI-((N-Me)C)+IPD-NH2 (peptide)
peptide: [NMeA]ICSRS[tBuAla]PPI[NMeC]IPD-NH2
modifications: disulfide 3-11; N-terminus assumed
SMILES: CC[C@H](C)[C@H](NC(=O)[C@H](C)NC)C(=O)N[C@H]1CSSC[C@@H](C(=O)N[C@H](C(=O)N2CCC[C@H]2C(=O)N[C@@H](CC(=O)O)C(N)=O)[C@@H](C)CC)N(C)C(=O)[C@H]([C@@H](C)CC)NC(=O)[C@@H]2CCCN2C(=O)[C@@H]2CCCN2C(=O)[C@H](CC(C)(C)C)NC(=O)[C@H](CO)NC(=O)[C@H](CCCNC(=N)N)NC(=O)[C@H](CO)NC1=O
B13: ((N-Me)G)-IC+SRSLP-(Oic)-I-(Pen)+IP-(PEG8(28 atoms))-NH2 (peptide)
peptide: [Sar]ICSRSLP[Oic]I[Pen]IP[PEG8]-NH2
modifications: disulfide 3-11; N-terminus assumed
SMILES: CC[C@H](C)[C@H](NC(=O)CNC)C(=O)N[C@H]1CSSC(C)(C)[C@@H](C(=O)N[C@H](C(=O)N2CCC[C@H]2C(=O)NCCOCCOCCOCCOCCOCCOCCOCCOCCC(N)=O)[C@@H](C)CC)NC(=O)[C@H]([C@@H](C)CC)NC(=O)[C@@H]2C[C@@H]3CCCC[C@@H]3N2C(=O)[C@@H]2CCCN2C(=O)[C@H](CC(C)C)NC(=O)[C@H](CO)NC(=O)[C@H](CCCNC(=N)N)NC(=O)[C@H](CO)NC1=O
B14: (2-(Morpholine)acetyl)-IC+SRS-((tBu)A)-PPI-(Pen)+IPD-NH2 (peptide)
peptide: [2‑(Morpholine)acetyl]ICSRS[tBuAla]PPI[Pen]IPD-NH2
modifications: disulfide 3-11
B15: ((N-Me)G)-IC+SRSLP-(Oic)-I-(Pen)+IP-((3-Carboxy)F)-NH2 (peptide)
peptide: [Sar]ICSRSLP[Oic]I[Pen]IP[Phe(3-COOH)]-NH2
modifications: disulfide 3-11; N-terminus assumed
SMILES: CC[C@H](C)[C@H](NC(=O)CNC)C(=O)N[C@H]1CSSC(C)(C)[C@@H](C(=O)N[C@H](C(=O)N2CCC[C@H]2C(=O)N[C@@H](Cc2cccc(C(=O)O)c2)C(N)=O)[C@@H](C)CC)NC(=O)[C@H]([C@@H](C)CC)NC(=O)[C@@H]2C[C@@H]3CCCC[C@@H]3N2C(=O)[C@@H]2CCCN2C(=O)[C@H](CC(C)C)NC(=O)[C@H](CO)NC(=O)[C@H](CCCNC(=N)N)NC(=O)[C@H](CO)NC1=O
B16: G-((N-Me)I)-C+SRSLPPIC+IPD-NH2 (peptide)
peptide: G[NMeI]CSRSLPPICIPD-NH2
modifications: disulfide 3-11; N-terminus assumed
SMILES: CC[C@H](C)[C@@H]1NC(=O)[C@@H]2CCCN2C(=O)[C@@H]2CCCN2C(=O)[C@H](CC(C)C)NC(=O)[C@H](CO)NC(=O)[C@H](CCCNC(=N)N)NC(=O)[C@H](CO)NC(=O)[C@@H](NC(=O)[C@H]([C@@H](C)CC)N(C)C(=O)CN)CSSC[C@@H](C(=O)N[C@H](C(=O)N2CCC[C@H]2C(=O)N[C@@H](CC(=O)O)C(N)=O)[C@@H](C)CC)NC1=O
B17: (3-Amino-2,2-dimethylpropionic acid)-IC+SRS-((tBu)A)-PPI-(Pen)+IPD-NH2 (peptide)
peptide: [3‑Amino‑2,2‑dimethylpropionic acid]ICSRS[tBuAla]PPI[Pen]IPD-NH2
modifications: disulfide 3-11
B18: ((N-Me)G)-IC+SRSLPPIC+IPD-NH2 (HCl salt) (peptide)
peptide: [Sar]ICSRSLPPICIPD-NH2
modifications: disulfide 3-11; also: HCl salt
B19: ((N-Me)G)-IC+SRSLPPIC+IPD-NH2 (peptide)
peptide: [Sar]ICSRSLPPICIPD-NH2
modifications: disulfide 3-11; N-terminus assumed
SMILES: CC[C@H](C)[C@H](NC(=O)CNC)C(=O)N[C@H]1CSSC[C@@H](C(=O)N[C@H](C(=O)N2CCC[C@H]2C(=O)N[C@@H](CC(=O)O)C(N)=O)[C@@H](C)CC)NC(=O)[C@H]([C@@H](C)CC)NC(=O)[C@@H]2CCCN2C(=O)[C@@H]2CCCN2C(=O)[C@H](CC(C)C)NC(=O)[C@H](CO)NC(=O)[C@H](CCCNC(=N)N)NC(=O)[C@H](CO)NC1=O
B20: aIC+SRSLP-(Oic)-I-(Pen)+IPD-OH (peptide)
peptide: [dA]ICSRSLP[Oic]I[Pen]IPD-OH
modifications: disulfide 3-11
B21: AIC+SRSLP-(Oic)-I-((N-Me)C)+IPD-OH (peptide)
peptide: AICSRSLP[Oic]I[NMeC]IPD-OH
modifications: disulfide 3-11; N-terminus assumed
SMILES: CC[C@H](C)[C@H](NC(=O)[C@H](C)N)C(=O)N[C@H]1CSSC[C@@H](C(=O)N[C@H](C(=O)N2CCC[C@H]2C(=O)N[C@@H](CC(=O)O)C(=O)O)[C@@H](C)CC)N(C)C(=O)[C@H]([C@@H](C)CC)NC(=O)[C@@H]2C[C@@H]3CCCC[C@@H]3N2C(=O)[C@@H]2CCCN2C(=O)[C@H](CC(C)C)NC(=O)[C@H](CO)NC(=O)[C@H](CCCNC(=N)N)NC(=O)[C@H](CO)NC1=O
B22: G-((N-Me)I)-C+SRSLPPIC+IPD-NH2 (HCl salt) (peptide)
peptide: G[NMeI]CSRSLPPICIPD-NH2
modifications: disulfide 3-11; also: HCl salt

Each binder was assayed against T1, recombinant human MASP1 active protease … (assay: cell-based or functional assay).

human MASP1 IC50 [nM]	Binder
1.9	B1
1.5	B2
2.45	B3
1.9	B4
1.7	B5
1.5	B6
1.35	B7
1.6	B8
1.6	B9
1.6	B10

Each binder was assayed against T2, Recombinant human MASP1 enzyme … (assay: cell-based or functional assay).

human MASP1 IC50 [nM]	Binder
6.3	B11
4.4	B12
4.2	B13
15	B14
5	B15
11	B16
4.2	B17
7.1	B18
13	B19
7	B20
4.4	B21
5.5	B22

Source: patent US20210246166A1 (Bayer, published 2021)
